# Source: EP4606822A1 (MULTITUDE THERAPEUTICS INC., dated 2024)
# Where a chain is given by its changes, count along the chain named.
# B1: humanized 4O3 antibody L1H5 (antibody, human IgG1, kappa)
# heavy: not shown
# light: EIVLTQSPDTQSVTPKEKVTITCRASQSISDYLHWYQQKPDQSPKLLIKYASQSISGVPSRFSGSGSGTDFTLTINSLEAEDAATYYCQSGRSFPLTFGGGTKVEIKRTVAAPSVFIFPPSDEQLKSGTASVVCLLNNFYPREAKVQWKVDNALQSGNSQESVTEQDSKDSTYSLSSTLTLSKADYEKHKVYACEVTHQGLSSPVTKSFNRGEC
# notes: also called Hu4O3 (L1H5); Hu4O3
# B2: humanized 4O3 antibody L1H4 (antibody, human IgG1, kappa)
# heavy: not shown
# light: B1 light
# notes: also called Hu4O3
# B3: humanized 4O3 antibody L2H4 (antibody, human IgG1, kappa, V domains shown)
# VH: QVQLQESGPGLVKPSQTLSLTCTVSGISITTGNYRWSWIRQHPGKKLEWIGNIYYSGAITYNPSLKSRVTISRDTSKNQFFLKLSSVTAADTAVYYCARDGGTVVEGWYFDVWGKGTTVTVSS
# VL: EIVLTQSPDTQSVTPKEKVTITCRASQSISDYLHWYQQKPDQSPKLLIKYASQSISGVPSRFSGSGSGTDFTLTINSLEAEDVGLYYCQSGRSFPLTFGGGTKVEIKR
# notes: also called Hu4O3
# B4: humanized 4O3 antibody L4H7 (antibody, human IgG1, kappa, V domains shown)
# VH: B3 VH with H42P, K46G, N52Y, F81S, K83Q, S85R, K115Q
# VL: B3 VL with D41G, S43A, V83F
# notes: also called Hu4O3
# B5: humanized 4O3 antibody L4H4 (antibody, human IgG1, kappa, V domains shown)
# VH: B3 VH
# VL: B3 VL with D41G, S43A, V83F
# notes: also called Hu4O3
# Biological target: T1, HER3 on human tumor cell lines (human, UniProt P21860 20-1342)
# T1 construct: whole, on cells; The immunogen was the human HER3 extracellular domain (NM_001982.4, positions 20-643), but the flow cytometry assays used endogenous HER3 on cells; also called HER3 protein
# T1 sequence (P21860 20-1342): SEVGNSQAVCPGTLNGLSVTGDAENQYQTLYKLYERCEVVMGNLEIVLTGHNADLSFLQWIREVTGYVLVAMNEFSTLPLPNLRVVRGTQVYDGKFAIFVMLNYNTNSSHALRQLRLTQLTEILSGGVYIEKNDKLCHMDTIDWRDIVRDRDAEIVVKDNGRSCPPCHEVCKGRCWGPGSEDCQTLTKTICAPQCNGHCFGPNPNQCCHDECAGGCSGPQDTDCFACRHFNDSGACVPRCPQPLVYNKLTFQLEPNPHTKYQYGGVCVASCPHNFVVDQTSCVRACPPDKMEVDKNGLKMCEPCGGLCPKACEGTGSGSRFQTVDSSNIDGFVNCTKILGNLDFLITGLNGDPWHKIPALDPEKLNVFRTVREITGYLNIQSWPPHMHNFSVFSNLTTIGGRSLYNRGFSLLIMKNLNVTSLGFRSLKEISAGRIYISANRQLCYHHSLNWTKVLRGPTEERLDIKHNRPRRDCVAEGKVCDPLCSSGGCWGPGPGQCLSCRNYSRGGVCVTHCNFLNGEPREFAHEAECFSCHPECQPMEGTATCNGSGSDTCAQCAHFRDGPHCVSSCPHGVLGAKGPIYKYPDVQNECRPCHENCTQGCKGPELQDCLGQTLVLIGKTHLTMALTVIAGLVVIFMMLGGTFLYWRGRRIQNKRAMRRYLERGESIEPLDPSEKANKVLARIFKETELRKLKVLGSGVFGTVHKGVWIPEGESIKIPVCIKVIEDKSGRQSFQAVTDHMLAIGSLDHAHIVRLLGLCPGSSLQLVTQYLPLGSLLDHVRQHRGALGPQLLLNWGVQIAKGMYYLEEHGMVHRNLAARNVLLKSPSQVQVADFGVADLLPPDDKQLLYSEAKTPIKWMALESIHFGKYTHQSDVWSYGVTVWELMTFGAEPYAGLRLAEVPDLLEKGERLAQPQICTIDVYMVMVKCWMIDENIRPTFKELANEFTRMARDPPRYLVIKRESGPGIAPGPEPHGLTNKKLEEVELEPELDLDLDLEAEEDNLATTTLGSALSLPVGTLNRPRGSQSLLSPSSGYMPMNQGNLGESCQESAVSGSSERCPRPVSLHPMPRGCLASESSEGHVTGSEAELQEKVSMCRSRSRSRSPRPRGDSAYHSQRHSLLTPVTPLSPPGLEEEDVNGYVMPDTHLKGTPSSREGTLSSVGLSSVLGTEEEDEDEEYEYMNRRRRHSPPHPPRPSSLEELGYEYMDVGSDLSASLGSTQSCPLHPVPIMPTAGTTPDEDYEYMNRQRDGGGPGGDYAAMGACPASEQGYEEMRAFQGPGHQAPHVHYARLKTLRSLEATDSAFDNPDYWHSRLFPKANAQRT
# Experiment: flow cytometry on MDA-MB-453 cells
row,EC50,Binder
1,122 nM,B1
2,71.5 nM,B2

# Biological target: T1, HER3 on human tumor cell lines
# Experiment: flow cytometry on SW620 cells
row,EC50,Binder
1,1200 nM,B3
2,147 nM,B1
3,194 nM,B2
4,21.9 nM,B4
5,90 nM,B5
